Patent US20250361282A1 (Bayer, published 2025)
Where a chain is given by its changes, count along the chain named.

B1: TPP-11157 (antibody, V domains shown)
VH: GFTFSSYAMSWVRQAPGKGLEWVSAISGSVVVTSHQAPGGGSGGGEKKKLKSLAYGSTYYADSVKGRFTISRDNSKNTLYLQMNSLRAEDTAVYYCAKLTGAEYFQHWGQGTLVTVSS
VL: QSVLTQPPSVSGAPGQRVTISCTGSSSNIGAGYDVHWYQQLPGTAPKLLIYGNSNRPSGVPDRFSGSKSGTSASLAITGLQAEDEADYYCQSYDSSLSGVVFGGGTKLTVLG
B2: TPP-11154 (antibody, V domains shown)
VH: EVQLLESGGGLVQPGGSLRLSCAASGFTFSSYAMSWVRQAPGKGLEWVSAISGSGGSTYYADSVKGRFTISRDNSKNTLYLQMNSLRAEDTAVYYCTSVHQETKKYQSSPDGGSGGGSYSYTYNYEWHVDVWGQGTLVTVSS
VL: B1 VL
B3: TPP-11155 (antibody, V domains shown)
VH: EVQLLESGGGLVQPGGSLRLSCAASGFTFSSYAMSWVRQAPGKGLEWVSAISGSGGSTYYADSVKGRFTISRDNSKNTLYLQMNSLRAEDTAVYYCTSVHQETKKYQSSPDGGSYSYTYNYEWHVDVWGQGTLVTVSS
VL: B1 VL
B4: TPP-11153 (antibody, V domains shown)
VH: EVQLLESGGGLVQPGGSLRLSCAASGFTFSSYAMSWVRQAPGKGLEWVSAISGSGGSTYYADSVKGRFTISRDNSKNTLYLQMNSLRAEDTAVYYCTSVHQETKKYQSSPDGGSGGSGGGSYSYTYNYEWHVDVWGQGTLVTVSS
VL: B1 VL
B5: TPP-11156 (antibody, human IgG1, lambda)
heavy: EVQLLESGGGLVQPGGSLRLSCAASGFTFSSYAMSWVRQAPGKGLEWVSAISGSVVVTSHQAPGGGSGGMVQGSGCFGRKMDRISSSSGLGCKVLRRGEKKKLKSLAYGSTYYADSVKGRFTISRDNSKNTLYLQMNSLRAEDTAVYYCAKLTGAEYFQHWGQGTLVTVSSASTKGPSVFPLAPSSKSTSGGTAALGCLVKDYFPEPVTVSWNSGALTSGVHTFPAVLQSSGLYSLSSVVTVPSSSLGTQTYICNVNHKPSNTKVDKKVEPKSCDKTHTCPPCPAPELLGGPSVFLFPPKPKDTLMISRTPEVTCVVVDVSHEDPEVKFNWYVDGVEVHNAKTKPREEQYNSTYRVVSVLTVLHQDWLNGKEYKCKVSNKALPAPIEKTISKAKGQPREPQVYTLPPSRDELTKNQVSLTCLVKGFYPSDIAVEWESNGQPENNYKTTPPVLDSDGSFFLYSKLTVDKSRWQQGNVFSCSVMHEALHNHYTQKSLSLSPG
light: QSVLTQPPSVSGAPGQRVTISCTGSSSNIGAGYDVHWYQQLPGTAPKLLIYGNSNRPSGVPDRFSGSKSGTSASLAITGLQAEDEADYYCQSYDSSLSGVVFGGGTKLTVLGQPKAAPSVTLFPPSSEELQANKATLVCLISDFYPGAVTVAWKADSSPVKAGVETTTPSKQSNNKYAASSYLSLTPEQWKSHRSYSCQVTHEGSTVEKTVAPTECS
B6: TPP-9902 (antibody)
heavy: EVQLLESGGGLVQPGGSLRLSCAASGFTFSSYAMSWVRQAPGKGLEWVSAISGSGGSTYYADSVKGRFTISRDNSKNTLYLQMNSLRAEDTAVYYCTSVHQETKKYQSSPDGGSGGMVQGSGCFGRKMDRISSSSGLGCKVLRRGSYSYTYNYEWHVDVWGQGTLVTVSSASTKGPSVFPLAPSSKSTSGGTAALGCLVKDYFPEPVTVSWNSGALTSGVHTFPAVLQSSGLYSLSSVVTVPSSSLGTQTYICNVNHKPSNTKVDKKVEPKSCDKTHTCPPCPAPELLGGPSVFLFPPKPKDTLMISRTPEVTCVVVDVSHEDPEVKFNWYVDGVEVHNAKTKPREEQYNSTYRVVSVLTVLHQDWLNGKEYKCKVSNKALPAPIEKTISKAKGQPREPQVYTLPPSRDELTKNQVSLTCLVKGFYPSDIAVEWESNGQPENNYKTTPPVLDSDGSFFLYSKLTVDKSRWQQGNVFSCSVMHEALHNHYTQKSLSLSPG
light: B5 light
B7: TPP-9465 (antibody)
heavy: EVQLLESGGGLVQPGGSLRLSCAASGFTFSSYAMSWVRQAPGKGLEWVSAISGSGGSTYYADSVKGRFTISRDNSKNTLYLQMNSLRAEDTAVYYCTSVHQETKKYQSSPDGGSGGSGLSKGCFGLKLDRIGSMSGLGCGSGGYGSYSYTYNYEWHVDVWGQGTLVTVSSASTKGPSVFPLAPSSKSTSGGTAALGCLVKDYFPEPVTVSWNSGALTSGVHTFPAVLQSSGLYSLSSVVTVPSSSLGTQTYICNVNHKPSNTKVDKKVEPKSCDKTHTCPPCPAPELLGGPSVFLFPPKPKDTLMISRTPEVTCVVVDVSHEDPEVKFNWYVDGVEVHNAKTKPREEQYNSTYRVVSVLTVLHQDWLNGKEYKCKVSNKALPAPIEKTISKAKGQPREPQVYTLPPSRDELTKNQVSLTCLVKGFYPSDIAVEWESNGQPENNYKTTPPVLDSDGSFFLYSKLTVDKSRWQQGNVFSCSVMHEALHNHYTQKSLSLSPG
light: B5 light
B8: TPP-10992 (antibody, human IgG4 S228P, lambda)
heavy: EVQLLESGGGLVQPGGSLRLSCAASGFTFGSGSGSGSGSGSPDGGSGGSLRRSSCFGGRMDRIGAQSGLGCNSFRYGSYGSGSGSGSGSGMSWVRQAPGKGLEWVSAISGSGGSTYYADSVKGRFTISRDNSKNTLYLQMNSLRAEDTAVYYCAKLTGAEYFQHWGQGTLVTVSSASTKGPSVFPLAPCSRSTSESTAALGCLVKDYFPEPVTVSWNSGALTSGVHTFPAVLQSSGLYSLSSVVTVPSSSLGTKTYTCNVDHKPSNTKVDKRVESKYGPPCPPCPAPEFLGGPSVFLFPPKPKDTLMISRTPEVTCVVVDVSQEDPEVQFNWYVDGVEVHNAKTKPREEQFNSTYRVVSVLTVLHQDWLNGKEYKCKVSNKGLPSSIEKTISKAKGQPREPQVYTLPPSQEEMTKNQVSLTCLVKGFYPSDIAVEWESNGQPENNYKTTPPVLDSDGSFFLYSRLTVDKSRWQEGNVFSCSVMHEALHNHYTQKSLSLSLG
light: B5 light
B9: TPP-5661 (antibody)
heavy: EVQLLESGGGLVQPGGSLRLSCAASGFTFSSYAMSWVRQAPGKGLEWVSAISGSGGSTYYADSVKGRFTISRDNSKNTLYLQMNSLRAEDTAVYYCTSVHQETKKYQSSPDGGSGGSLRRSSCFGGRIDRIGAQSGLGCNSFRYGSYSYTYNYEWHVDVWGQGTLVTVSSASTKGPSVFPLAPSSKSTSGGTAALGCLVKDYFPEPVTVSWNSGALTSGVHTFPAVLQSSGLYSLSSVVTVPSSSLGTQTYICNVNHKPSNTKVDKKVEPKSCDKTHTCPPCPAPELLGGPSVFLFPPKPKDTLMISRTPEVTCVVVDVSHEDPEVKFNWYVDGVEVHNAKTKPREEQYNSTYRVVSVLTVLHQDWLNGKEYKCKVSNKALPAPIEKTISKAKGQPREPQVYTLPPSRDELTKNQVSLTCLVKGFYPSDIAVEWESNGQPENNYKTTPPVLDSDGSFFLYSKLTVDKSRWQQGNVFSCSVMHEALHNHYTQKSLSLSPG
light: B5 light
B10: TPP-12377 (antibody)
heavy: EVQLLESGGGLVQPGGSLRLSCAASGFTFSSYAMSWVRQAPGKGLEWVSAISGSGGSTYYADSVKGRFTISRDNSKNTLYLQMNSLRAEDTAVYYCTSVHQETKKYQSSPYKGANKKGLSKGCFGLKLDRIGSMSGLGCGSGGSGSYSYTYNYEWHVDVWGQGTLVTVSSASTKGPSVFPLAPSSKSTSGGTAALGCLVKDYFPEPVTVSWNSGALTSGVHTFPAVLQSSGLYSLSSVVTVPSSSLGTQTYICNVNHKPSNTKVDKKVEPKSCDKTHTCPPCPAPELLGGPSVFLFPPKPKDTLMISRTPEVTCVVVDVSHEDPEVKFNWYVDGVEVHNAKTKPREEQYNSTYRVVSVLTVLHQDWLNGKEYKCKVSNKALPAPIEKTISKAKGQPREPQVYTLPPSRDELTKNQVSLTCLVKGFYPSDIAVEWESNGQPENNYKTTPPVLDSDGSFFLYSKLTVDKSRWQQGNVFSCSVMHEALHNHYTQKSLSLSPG
light: B5 light
B11: TPP-12897 (antibody)
heavy: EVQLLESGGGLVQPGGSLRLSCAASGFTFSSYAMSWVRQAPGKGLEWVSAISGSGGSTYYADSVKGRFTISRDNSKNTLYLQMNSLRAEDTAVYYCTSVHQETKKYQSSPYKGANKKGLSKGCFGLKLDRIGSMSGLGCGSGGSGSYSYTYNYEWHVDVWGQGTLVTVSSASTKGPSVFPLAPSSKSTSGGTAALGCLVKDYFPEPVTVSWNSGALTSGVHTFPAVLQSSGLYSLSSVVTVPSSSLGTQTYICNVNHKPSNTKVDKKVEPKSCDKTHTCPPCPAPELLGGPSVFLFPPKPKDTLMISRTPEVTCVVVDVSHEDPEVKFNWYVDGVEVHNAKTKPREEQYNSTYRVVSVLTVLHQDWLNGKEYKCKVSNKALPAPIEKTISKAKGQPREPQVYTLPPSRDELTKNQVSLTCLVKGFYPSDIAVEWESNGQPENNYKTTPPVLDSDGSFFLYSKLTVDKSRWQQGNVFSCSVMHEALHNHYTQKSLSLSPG
light: B5 light with S98D

Columns and labels:
Test in all cases: cell-based or functional assay
[1] = biological target: T1, rat NPR-A (rat, UniProt P18910 29-1057)
T1 sequence (looked up): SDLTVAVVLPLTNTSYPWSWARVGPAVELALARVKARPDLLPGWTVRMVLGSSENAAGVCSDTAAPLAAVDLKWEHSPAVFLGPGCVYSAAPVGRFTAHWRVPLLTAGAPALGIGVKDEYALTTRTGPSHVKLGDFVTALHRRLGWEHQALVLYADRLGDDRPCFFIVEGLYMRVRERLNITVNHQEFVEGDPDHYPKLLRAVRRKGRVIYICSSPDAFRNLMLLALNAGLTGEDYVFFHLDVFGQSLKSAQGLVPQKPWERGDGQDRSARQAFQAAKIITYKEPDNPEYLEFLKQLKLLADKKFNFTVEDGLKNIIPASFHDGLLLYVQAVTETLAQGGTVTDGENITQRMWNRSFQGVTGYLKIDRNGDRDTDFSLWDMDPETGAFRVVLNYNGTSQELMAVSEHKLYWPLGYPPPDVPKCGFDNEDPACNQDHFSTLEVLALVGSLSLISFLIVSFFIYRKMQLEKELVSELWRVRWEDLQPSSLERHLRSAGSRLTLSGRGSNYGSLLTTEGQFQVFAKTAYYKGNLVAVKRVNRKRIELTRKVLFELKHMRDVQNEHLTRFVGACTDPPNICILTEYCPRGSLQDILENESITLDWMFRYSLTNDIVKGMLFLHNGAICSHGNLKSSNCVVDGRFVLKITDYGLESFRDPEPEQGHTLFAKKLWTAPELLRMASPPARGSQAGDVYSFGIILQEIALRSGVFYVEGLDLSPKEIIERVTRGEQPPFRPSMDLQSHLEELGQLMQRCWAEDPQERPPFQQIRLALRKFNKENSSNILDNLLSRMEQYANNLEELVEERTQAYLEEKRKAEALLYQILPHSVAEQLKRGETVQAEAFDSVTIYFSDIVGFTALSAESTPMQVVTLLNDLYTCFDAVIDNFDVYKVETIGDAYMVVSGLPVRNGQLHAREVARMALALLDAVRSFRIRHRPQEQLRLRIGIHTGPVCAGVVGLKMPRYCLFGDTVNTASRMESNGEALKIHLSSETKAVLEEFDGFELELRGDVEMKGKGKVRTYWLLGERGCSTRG

[2] = biological target: T2, rat NPR-B (rat, UniProt P16067 17-1047)
T2 sequence (looked up): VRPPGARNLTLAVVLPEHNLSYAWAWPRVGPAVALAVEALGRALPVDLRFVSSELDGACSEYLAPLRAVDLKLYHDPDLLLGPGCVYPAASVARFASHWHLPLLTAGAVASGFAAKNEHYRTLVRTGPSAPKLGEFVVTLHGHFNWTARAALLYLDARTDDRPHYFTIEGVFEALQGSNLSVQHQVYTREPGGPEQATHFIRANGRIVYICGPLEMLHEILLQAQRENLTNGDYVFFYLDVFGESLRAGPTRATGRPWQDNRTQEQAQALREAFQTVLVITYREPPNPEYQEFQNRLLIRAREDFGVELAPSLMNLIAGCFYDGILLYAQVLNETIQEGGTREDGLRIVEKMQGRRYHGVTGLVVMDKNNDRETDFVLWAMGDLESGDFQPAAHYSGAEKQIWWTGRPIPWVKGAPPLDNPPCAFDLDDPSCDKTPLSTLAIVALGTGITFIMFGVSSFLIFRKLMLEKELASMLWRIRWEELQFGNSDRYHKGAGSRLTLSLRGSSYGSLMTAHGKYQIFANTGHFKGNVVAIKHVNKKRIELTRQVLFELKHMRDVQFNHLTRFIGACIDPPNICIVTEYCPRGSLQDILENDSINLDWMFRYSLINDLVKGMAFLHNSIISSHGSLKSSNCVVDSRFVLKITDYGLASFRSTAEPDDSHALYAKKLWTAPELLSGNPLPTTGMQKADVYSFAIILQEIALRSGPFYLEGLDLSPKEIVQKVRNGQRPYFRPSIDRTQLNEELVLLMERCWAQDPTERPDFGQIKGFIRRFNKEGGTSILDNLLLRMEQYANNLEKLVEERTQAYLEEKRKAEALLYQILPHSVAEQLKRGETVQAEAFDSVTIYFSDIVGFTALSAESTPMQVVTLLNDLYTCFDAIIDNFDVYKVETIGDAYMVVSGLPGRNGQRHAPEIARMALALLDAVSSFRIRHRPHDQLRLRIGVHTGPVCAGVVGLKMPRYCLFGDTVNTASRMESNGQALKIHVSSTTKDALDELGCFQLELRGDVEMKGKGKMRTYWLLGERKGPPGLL

[3] = biological target: T3, human NPRA (hNPRA) (human, UniProt P16066 33-1061)
T3 sequence (looked up): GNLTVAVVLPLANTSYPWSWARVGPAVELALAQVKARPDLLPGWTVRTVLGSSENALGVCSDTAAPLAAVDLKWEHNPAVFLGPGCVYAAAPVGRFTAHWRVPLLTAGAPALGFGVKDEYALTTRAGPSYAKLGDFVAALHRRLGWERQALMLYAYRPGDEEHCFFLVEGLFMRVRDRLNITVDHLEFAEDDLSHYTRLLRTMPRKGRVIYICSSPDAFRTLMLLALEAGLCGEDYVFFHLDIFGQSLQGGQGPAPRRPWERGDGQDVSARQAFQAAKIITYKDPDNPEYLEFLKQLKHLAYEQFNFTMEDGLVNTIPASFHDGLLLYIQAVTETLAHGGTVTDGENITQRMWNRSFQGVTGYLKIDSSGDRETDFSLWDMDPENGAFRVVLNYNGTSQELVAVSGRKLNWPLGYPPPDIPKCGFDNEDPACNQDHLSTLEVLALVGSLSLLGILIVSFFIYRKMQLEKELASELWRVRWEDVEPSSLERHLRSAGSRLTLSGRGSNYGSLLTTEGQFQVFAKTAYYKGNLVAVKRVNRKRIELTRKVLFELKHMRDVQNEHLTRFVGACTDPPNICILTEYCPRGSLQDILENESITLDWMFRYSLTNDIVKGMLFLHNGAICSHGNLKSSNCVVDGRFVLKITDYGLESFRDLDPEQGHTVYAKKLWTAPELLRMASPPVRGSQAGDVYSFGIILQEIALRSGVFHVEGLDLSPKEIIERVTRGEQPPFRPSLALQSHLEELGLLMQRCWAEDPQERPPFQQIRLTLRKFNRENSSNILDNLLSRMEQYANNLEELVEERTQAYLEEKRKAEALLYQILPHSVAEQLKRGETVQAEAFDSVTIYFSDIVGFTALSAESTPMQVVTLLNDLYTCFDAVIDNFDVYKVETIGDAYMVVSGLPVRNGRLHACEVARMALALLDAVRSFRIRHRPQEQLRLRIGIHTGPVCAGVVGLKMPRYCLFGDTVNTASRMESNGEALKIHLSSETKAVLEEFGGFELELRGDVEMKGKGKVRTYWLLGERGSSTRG

Binder | EC50, fluorescence signal of rat NPR-A / CNGA2 (cGMP biosensor) / GCaMP6 CHO reporter cells [1] [nM] | EC50 on rNPRA reporter cells [1] [nM] | other results
B1 | 11 | < 20 | –
B2 | 7 | < 20 | –
B3 | 12 | < 20 | –
B4 | > 1900 | > 1000 | –
B5 | 1200 | > 1000 | –
B6 | 2300 | > 1000 | –
B7 | – | – | EC50, luminescence signal of rat NPR-B reporter cells [2]: 5.2 nM
B8 | 180 | – | –
B9 | 17 | – | logEC50, cGMP quantification assay (HTRF), stable hNPRA-CHO k1 cells, isolated compound sample [3]: -8.8; logEC50, cGMP quantification assay (HTRF), stable hNPRA-CHO k1 cells, purified compound sample, average of experiments [3]: -9.2; logEC50, cGMP quantification assay (HTRF), transient hNPRA-HEK293 cells, purified compound sample, average of three experiments [3]: -9
B10 | – | – | EC50, luminescence signal of rat NPR-B reporter cells [2]: 4.1 nM
B11 | – | – | EC50, luminescence signal of rat NPR-B reporter cells [2]: 10 nM
